From patent US20210009993A1 (ROCHE DIAGNOSTICS OPERATIONS, published 2021)
Residue numbers refer to the chain shown, from its start. Names may count otherwise.

B1: anti-cTnT Fab fragment, CDR combination 1 (Y34F) (Fab, V domains shown)
VH: EVQLQQSGPELVKPGASVKMSCKASGYTFTDYFMKWVKQSHGKSLEWIGDINPNNGETFYNQKFKDKATLTVDKSSSTAYMQLNSLTSEDSAVYYCATRVFDYWGQGTTLTVSS
VL: DIVLTQSPASLAVSLGQRATISCKASQSVDYDGTSYMNWFQQKAGQPPKRLIYAASNLESGIPARFSGRGSGTDFALNIHPVEEEDAATYYCQQSNEDPYTFGGGTKLEIKR
notes: tested from E. coli lysate; also called mutant 1
B2: anti-cTnT Fab fragment, CDR combination 9 (Y34I) (Fab, V domains shown)
VH: B1 VH with F33I
VL: B1 VL
notes: tested from E. coli lysate; also called mutant 9
B3: anti-cTnT Fab fragment, CDR combination 19 (Y104F) (Fab, V domains shown)
VH: B1 VH with F33Y, Y103F
VL: B1 VL
notes: tested from E. coli lysate; also called mutant 19
B4: anti-cTnT Fab fragment, CDR combination 21 (F60W, V101Y) (Fab, V domains shown)
VH: B1 VH with F33Y, F59W, V100Y
VL: B1 VL
notes: tested from E. coli lysate; also called mutant 21

Biological target: T1, human cardiac troponin T (cTnT) (human, UniProt P45379 2-298)
T1 construct: also called Recombinant human TnT (Roche, 37 kDa)
Assay: SPR, Biacore T200, 37 C; Fab captured via anti-human F(ab')2, cTnT analyte
Experimental: Detailed kinetic investigations were performed at 37° C. on a GE Healthcare T200 instrument. A Biacore CM-5 series S sensor was mounted into the instrument and was preconditioned according to the manufacturer's instructions. The system buffer was HBS-ET (10 mM HEPES (pH 7.4), 150 mM NaCl, 1 mM EDTA, 0.05% (w/v) Tween® 20). The sample buffer was the system buffer supplemented with 1 mg/ml CMD (Carboxymethyldextran, Fluka). In one embodiment an anti-human antibody capture system was established on the CMS biosensor. GAHF(ab′)2, (goat anti human F(ab′)2) (Code Nr.: 109-005-097, lot #13.12.2005, Jackson Immuno Research) was immobilized according to the manufacturer's instructions using NHS/EDC chemistry. 30 μg/ml GAHF(ab′)2 in 10 mM sodium acetate buffer (pH 5.0) were preconcentrated to the flow cells 1, 2, 3 and 4 and were immobilized with 10.000 RU GAHF(ab′)2. The sensor was subsequently saturated with 1 M ethanolamine pH 8.5.
Chimeric anti-TnT antibody fragments were periplasmatically expressed in E. coli cells as described and were lyzed by methods known (for technical details see: Andersen, D. C. & Reilly, D. E. (2004); Production technologies for monoclonal antibodies and their fragments. Curr Opin Biotechnol 15, 456-62). The lysates were diluted 1:20 in sample buffer. Fab fragments were captured via their humanized framework regions from the expression lysates on the biosensor at a flow rate of 10 μl/min for 1 min followed by a 2 min washing step with 10-fold concentrated HBS-EP buffer at 30 μl/min. The Fab fragment capture level (CL) in response units (RU) was monitored. Recombinant human TnT (Roche, 37 kDa) was diluted in sample buffer at 90 nM and a concentration series was produced with […], 30 nM, 11 nM, 3.3 nM, 1.1 nM, 0 nM, 3.3 nM TnT concentration. The analyte concentration series were 80 μl/min for 3 min association phase and the dissociation phase was monitored for 3 min.
The kinetic parameters ka [1/Ms], kd [1/s], t1/2 diss [min], KD [M] and the binding stoichiometry (Molar Ratio) (for details see: Schraeml, M. & Biehl, M. (2012); Kinetic screening in the antibody development process. Methods Mol Biol 901, 171-81.) of the cTnT analyte were determined for each Fab fragment mutant with the Biaevaluation Software (GE healthcare) according to the manufacturer's instructions.

Binder	Kd	also measured
B1	0.61 nM	–
B2	–	MR (Molar Ratio): 0.6
B3	0.48 nM	–
B4	–	t/2-diss: 3 min
